Experimental data taken from patent US20130040853A1, “Context Specific Genetic Screen Platform to Aid in Gene Discovery and Target Validation” (Dana-Farber Cancer Institute Inc., priority 2010, published 2013).

B1: JNK2 p.V13M: JNK2 somatic mutant, observed in colorectal adenocarcinoma (protein, UniProt P45984 1-424, looked up, variant V13M)
Mitogen-activated protein …: MSDSKCDSQFYSMQVADSTFTVLKRYQQLKPIGSGAQGIVCAAFDTVLGINVAVKKLSRPFQNQTHAKRAYRELVLLKCVNHKNIISLLNVFTPQKTLEEFQDVYLVMELMDANLCQVIHMELDHERMSYLLYQMLCGIKHLHSAGIIHRDLKPSNIVVKSDCTLKILDFGLARTACTNFMMTPYVVTRYYRAPEVILGMGYKENVDIWSVGCIMGELVKGCVIFQGTDHIDQWNKVIEQLGTPSAEFMKKLQPTVRNYVENRPKYPGIKFEELFPDWIFPSESERDKIKTSQARDLLSKMLVIDPDKRISVDEALRHPYITVWYDPAEAEAPPPQIYDAQLEEREHAIEEWKELIYKEVMDWEERSKNGVVKDQPSDAAVSSNATPSQSSSINDISSMSTEQTLASDTDSSLDASTGPLEGCR
B2: JNK2 p.K56N: JNK2 somatic mutant, observed in head & neck squamous cell (protein, UniProt P45984 1-424, looked up, variant K56N)
Mitogen-activated protein …: MSDSKCDSQFYSVQVADSTFTVLKRYQQLKPIGSGAQGIVCAAFDTVLGINVAVKNLSRPFQNQTHAKRAYRELVLLKCVNHKNIISLLNVFTPQKTLEEFQDVYLVMELMDANLCQVIHMELDHERMSYLLYQMLCGIKHLHSAGIIHRDLKPSNIVVKSDCTLKILDFGLARTACTNFMMTPYVVTRYYRAPEVILGMGYKENVDIWSVGCIMGELVKGCVIFQGTDHIDQWNKVIEQLGTPSAEFMKKLQPTVRNYVENRPKYPGIKFEELFPDWIFPSESERDKIKTSQARDLLSKMLVIDPDKRISVDEALRHPYITVWYDPAEAEAPPPQIYDAQLEEREHAIEEWKELIYKEVMDWEERSKNGVVKDQPSDAAVSSNATPSQSSSINDISSMSTEQTLASDTDSSLDASTGPLEGCR
B3: MAP2K4 WT: wild type MAP2K4 kinase ORF expressed from lentiviral vector in HMEL cells (protein, UniProt P45985 1-399, looked up)
chain: MAAPSPSGGGGSGGGSGSGTPGPVGSPAPGHPAVSSMQGKRKALKLNFANPPFKSTARFTLNPNPTGVQNPHIERLRTHSIESSGKLKISPEQHWDFTAEDLKDLGEIGRGAYGSVNKMVHKPSGQIMAVKRIRSTVDEKEQKQLLMDLDVVMRSSDCPYIVQFYGALFREGDCWICMELMSTSFDKFYKYVYSVLDDVIPEEILGKITLATVKALNHLKENLKIIHRDIKPSNILLDRSGNIKLCDFGISGQLVDSIAKTRDAGCRPYMAPERIDPSASRQGYDVRSDVWSLGITLYELATGRFPYPKWNSVFDQLTQVVKGDPPQLSNSEEREFSPSFINFVNLCLTKDESKRPKYKELLKHPFILMYEERAVEVACYVCKILDQMPATPSSPMYVD
modifications: full-length
notes: wild type MAP2K4 kinase ORF expressed from lentiviral vector in HMEL cells
B4: MAP2K4 p.S251N: MAP2K4 somatic mutant identified in a melanoma (protein, UniProt P45985 2-399, looked up, variant S251N)
Dual specificity …: AAPSPSGGGGSGGGSGSGTPGPVGSPAPGHPAVSSMQGKRKALKLNFANPPFKSTARFTLNPNPTGVQNPHIERLRTHSIESSGKLKISPEQHWDFTAEDLKDLGEIGRGAYGSVNKMVHKPSGQIMAVKRIRSTVDEKEQKQLLMDLDVVMRSSDCPYIVQFYGALFREGDCWICMELMSTSFDKFYKYVYSVLDDVIPEEILGKITLATVKALNHLKENLKIIHRDIKPSNILLDRSGNIKLCDFGINGQLVDSIAKTRDAGCRPYMAPERIDPSASRQGYDVRSDVWSLGITLYELATGRFPYPKWNSVFDQLTQVVKGDPPQLSNSEEREFSPSFINFVNLCLTKDESKRPKYKELLKHPFILMYEERAVEVACYVCKILDQMPATPSSPMYVD
B5: MAP2K4 p.A279T: MAP2K4 somatic driver mutant, observed in colorectal adenocarcinoma (protein, UniProt P45985 2-399, looked up, variant A279T)
Dual specificity …: AAPSPSGGGGSGGGSGSGTPGPVGSPAPGHPAVSSMQGKRKALKLNFANPPFKSTARFTLNPNPTGVQNPHIERLRTHSIESSGKLKISPEQHWDFTAEDLKDLGEIGRGAYGSVNKMVHKPSGQIMAVKRIRSTVDEKEQKQLLMDLDVVMRSSDCPYIVQFYGALFREGDCWICMELMSTSFDKFYKYVYSVLDDVIPEEILGKITLATVKALNHLKENLKIIHRDIKPSNILLDRSGNIKLCDFGISGQLVDSIAKTRDAGCRPYMAPERIDPSTSRQGYDVRSDVWSLGITLYELATGRFPYPKWNSVFDQLTQVVKGDPPQLSNSEEREFSPSFINFVNLCLTKDESKRPKYKELLKHPFILMYEERAVEVACYVCKILDQMPATPSSPMYVD
B6: MAP2K4 p.N2341: MAP2K4 somatic driver mutant, observed in ovarian serous carcinoma (protein, UniProt P45985 2-399, looked up, variant N234I)
Dual specificity …: AAPSPSGGGGSGGGSGSGTPGPVGSPAPGHPAVSSMQGKRKALKLNFANPPFKSTARFTLNPNPTGVQNPHIERLRTHSIESSGKLKISPEQHWDFTAEDLKDLGEIGRGAYGSVNKMVHKPSGQIMAVKRIRSTVDEKEQKQLLMDLDVVMRSSDCPYIVQFYGALFREGDCWICMELMSTSFDKFYKYVYSVLDDVIPEEILGKITLATVKALNHLKENLKIIHRDIKPSIILLDRSGNIKLCDFGISGQLVDSIAKTRDAGCRPYMAPERIDPSASRQGYDVRSDVWSLGITLYELATGRFPYPKWNSVFDQLTQVVKGDPPQLSNSEEREFSPSFINFVNLCLTKDESKRPKYKELLKHPFILMYEERAVEVACYVCKILDQMPATPSSPMYVD
B7: JNK1 WT: wild type MAPK8/JNK1 kinase ORF expressed in HMEL cells (protein, UniProt P45983 1-427, looked up)
Mitogen-activated protein …: MSRSKRDNNFYSVEIGDSTFTVLKRYQNLKPIGSGAQGIVCAAYDAILERNVAIKKLSRPFQNQTHAKRAYRELVLMKCVNHKNIIGLLNVFTPQKSLEEFQDVYIVMELMDANLCQVIQMELDHERMSYLLYQMLCGIKHLHSAGIIHRDLKPSNIVVKSDCTLKILDFGLARTAGTSFMMTPYVVTRYYRAPEVILGMGYKENVDLWSVGCIMGEMVCHKILFPGRDYIDQWNKVIEQLGTPCPEFMKKLQPTVRTYVENRPKYAGYSFEKLFPDVLFPADSEHNKLKASQARDLLSKMLVIDASKRISVDEALQHPYINVWYDPSEAEAPPPKIPDKQLDEREHTIEEWKELIYKEVMDLEERTKNGVIRGQPSPLGAAVINGSQHPSSSSSVNDVSSMSTDPTLASDTDSSLEAAAGPLGCCR
B8: MAP2K7 p.R162C: MAP2K7 somatic mutant, observed in colorectal adenocarcinoma (protein, UniProt O14733 2-419, looked up, variant R162C)
Dual specificity …: AASSLEQKLSRLEAKLKQENREARRRIDLNLDISPQRPRPTLQLPLANDGGSRSPSSESSPQHPTPPARPRHMLGLPSTLFTPRSMESIEIDQKLQEIMKQTGYLTIGGQRYQAEINDLENLGEMGSGTCGQVWKMRFRKTGHVIAVKQMRRSGNKEENKCILMDLDVVLKSHDCPYIVQCFGTFITNTDVFIAMELMGTCAEKLKKRMQGPIPERILGKMTVAIVKALYYLKEKHGVIHRDVKPSNILLDERGQIKLCDFGISGRLVDSKAKTRSAGCAAYMAPERIDPPDPTKPDYDIRADVWSLGISLVELATGQFPYKNCKTDFEVLTKVLQEEPPLLPGHMGFSGDFQSFVKDCLTKDHRKRPKYNKLLEHSFIKRYETLEVDVASWFKDVMAKTESPRTSGVLSQPHLPFFR
B9: MAP2K7 p.R162H: MAP2K7 somatic mutant, observed in colorectal adenocarcinoma (protein, UniProt O14733 2-419, looked up, variant R162H)
Dual specificity …: AASSLEQKLSRLEAKLKQENREARRRIDLNLDISPQRPRPTLQLPLANDGGSRSPSSESSPQHPTPPARPRHMLGLPSTLFTPRSMESIEIDQKLQEIMKQTGYLTIGGQRYQAEINDLENLGEMGSGTCGQVWKMRFRKTGHVIAVKQMRRSGNKEENKHILMDLDVVLKSHDCPYIVQCFGTFITNTDVFIAMELMGTCAEKLKKRMQGPIPERILGKMTVAIVKALYYLKEKHGVIHRDVKPSNILLDERGQIKLCDFGISGRLVDSKAKTRSAGCAAYMAPERIDPPDPTKPDYDIRADVWSLGISLVELATGQFPYKNCKTDFEVLTKVLQEEPPLLPGHMGFSGDFQSFVKDCLTKDHRKRPKYNKLLEHSFIKRYETLEVDVASWFKDVMAKTESPRTSGVLSQPHLPFFR

Key:
[1] = test system: HMEL-BRAF^V600E melanocytes; assay: In vivo functional genetic screen and secondary validation: kinase-transduced HMEL cells implanted in nude mice; set-up: species or system human; conditions: for Tumorigenicity in vivo: WT or mutant kinase expressed individually
From the text: A ‘cancer-kinase’ library was constructed containing sequence-verified ORFs in a lentiviral vector for 110 of the 120 kinases reported to sustain somatic driver mutations in diverse human cancers. This library was pooled and introduced into a human HMEL-BRAF^V600E melanocyte model system engineered with BRAF^V600E and TERT as well as p53DD and CDK4-R24C to inactivate the […] pathways, respectively. The HMEL-BRAF^V600E melanocyte profile, while representing the most common clinically-definable genetic profile in human melanoma, is insufficient to drive efficient melanoma formation following orthotopic transplantation in the skin (penetrance of 10% and latency of 26 weeks). In contrast, 40% of HMEL-BRAF^V600E melanocytes transduced with the cancer kinase pools developed tumors with an average latency of 13 weeks (range 10-18 weeks).
In vivo functional genetic screens: Lentivirus were prepared by co-transfecting 293T cells with individual vector backbones and standard virus packaging systems for subsequent collection of viral supernatants. Viral supernatants were then pooled randomly to generate 8 pools of high-titer lentiviral stocks. HMEL cells were transduced with either GFP control lentivirus or each representative lentiviral pool in the presence of 8 ug/ml polybrene (Company). Infected cells were expanded, mixed 1:1 with Matrigel (BD Bioscience) and then subcutaneously implanted in female nude animals (Taconic) at 1×10^6 cells per site on both flanks. Primary INK4A/ARF−/−, PTEN−/− murine astrocytes were transduced with either GFP control lentivirus or each representative lentiviral pool in the presence of 8 ug/ml polybrene (Company). Infected cells were expanded implanted into the brain parenchyma of female SCID mice (Charles River). Briefly, SCID mice were anesthetized and placed into a stereotactic apparatus equipped with a Z axis (Stoelting). A small hole was bored in the skull 0.5 mm anterior and 3.0 mm lateral to the bregma using a dental drill. Twenty thousand cells in Hank's Buffered Salt Solution were injected into the right caudate nucleus 2 mm below the surface of the brain using a 10-ul Hamilton syringe with an unbeveled 30 gauge needle. The scalp was closed using a 9-mm Autoclip Applier. Animals were followed daily for the development of subQ tumors or signs of neurological deficits. Animals were sacrifice, tumors were harvested, genomic DNA was prepared and kinases expressed in each tumor identified using PCR sequencing using plasmid specific CMV and V5 primers. Expression of each kinase was further validated by western blot analysis. Kinases expressed in each tumor were then enlisted into secondary validation screens in which stable HMEL or mouse astrocyte lines were generated expressing each kinase individually. Cells were again expanded and then implanted in female nude or SCID animals. All mice were housed and treated in accordance with protocols approved by the institutional care and use committees for animal research at the Dana-Farber Cancer Institute.

cJUN phosphorylation = assay: JNK Kinase Assay (WT and mutant kinases immunoprecipitated from HMEL cells); format: biochemical, human; conditions: as reported by level of cJUN phosphorylation; for MAP2K4/7 first incubated with inactive JNK2

Molecule | Tumorigenicity in vivo [1] | Kinase Activity (cJUN phosphorylation) | further results
B1 | YES |  | 
B2 | YES |  | 
B3 | YES | 1X | tumor penetrance ([1]; secondary validation, kinase transduced individually into HMEL-BRAF^V600E melanocytes): 30%
B4 |  | 1X | 
B5 |  | <1X | 
B6 |  | 2.5X^ | 
B7 | YES |  | tumor generation individually in secondary HMEL screens ([1]; kinase transduced individually): did not generate tumors
B8 |  | 1X | 
B9 |  | 1X | 
